In publication PMC5964024:

Columns and labels:
R5gp120-Hi (human) = R5gp120-Hi (human) (UniProt P51681); experiment: flow cytometry on cells
[1] = target: myc-tagged human CCR5 (wildtype) (human) (UniProt P51681); experiment: flow cytometry on cells

## BaL gp120-CD4-FLAG (from UniProt P01730 26-209) (ligand)
R5gp120-Hi (human)
  Kd: 12 nM
[1]
  Kd: 32 nM
